assay: yeast display, Sf9 membrane polyspecificity reagent, FACS + sequencing; frameworks hold sequencing errors
How it was run: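 Synthetic nanobody libraries on Saccharomyces cerevisiae BJ5465 were galactose-induced for 36–48 hours, stained 1 hour at 4 °C with 10% biotinylated, detergent-solubilized Sf9 membrane reagent and enriched on streptavidin microbeads. FACS then separated cells into low and high (top ~1%) gates by anti-HA (expression) and streptavidin (reagent binding) fluorescence. Genes were colony-PCR amplified, MiSeq 2 × 250 sequenced and CDR-length filtered. A clone's polyreactivity label is that of its gate of origin.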

Sequence	polyreactivity (PSR sort gate)
HVQLVESGGGLVQAGGSLRLSCAASGYTFWDYAMGWYRQAPGKEREFVAGISFSDGGTYYADSVKGRFTISRDNAKNTVYLQMNSLKPEDTAVYYCAATYPYSWVYSGYYYWGQGTQVTVSS	low polyreactivity
QEQLQESGGGLVQAGGSLRMSCAASGTIFSEANKGWYRQAPGKERELVATIGQGSTTNYADSVKGRFTISRDNAKNTVYLQMNSLKPEETAVYYCAVVTVDPVGFVYWGQGTQVTVSS	low polyreactivity
QVHLVESGGGLVQAGGSLRLSCAASGSIFDVNAMGWYRQAPGKERQLVAAISDSGGSTYYADSVKGRFTISRDNAKNTVYLQMNSLKPEDTAVYYCNADWSSYNYYDFDYWGQGTQVTVSS	low polyreactivity
QVQLVESGGGLVQAGGSLRLSCAASGFTFAAYAMGWYRQAPGKERELVAAISWSGGSTRYADCVKGRYTISRDNAKNTVYLQKNSLIPEDTAVYYCNAVGYRVGIYSSKGDYWGQGTQVTVSS	high polyreactivity
QVQLVESGGGLVQAGGSLRLSCAASGLIFNFYAMGWYRPAPGKEREFVAAISWNAGSTYYADSVKGRFTISRDNAKNTVYLQMNSLKPEDTAVYYCNADQDYQGARPSGMDYWGQGTQVTVSS	low polyreactivity
QVQLVESGGGLVQAGGSLRLSCAASGFTFWWYAMGWYRQAPGKERELVASIDTRGGTYYADSVKGRFTISRDNAKNTVYLQMNRLKPEDTAVYYCNADGAYGNYRGGYWGQGTQVTVSS	high polyreactivity
QVQLVESGGGLVQAGGSLRLSCAASGRTFKLYAMGWYRQAPGKERELVAAISRSSGSTYYADSVKGRFTISRDNAKNTDYLQMNSLKPEDTAVYYCAARKNRAYGYWGQGTQVTVSS	high polyreactivity
QVQLVESGGGLVQAGGSLRLSCAASGFTINFYAMGWYRKAPGKERELVAAITASGGGSTYYADSVKGRFTISRDNAKNTVYLQMNSLKPEDTAVYYCNADYPGSFYTYDYWGQGTQVTVSS	low polyreactivity
QVQLVESGGGLVQAGGSLRLSCAASGRIFTYYAMGWYRQAPGKERELVAAISSGGSTYYADSVKGRFTISRDNAKNTVYLQMNSLKPEDTAVYYCAADSIYYFPYDYWGQGTQVTVSS	high polyreactivity
QVQLVESGGGLVQAGGSLRLSCAASGRIFRYNAMGWYRQAPGKERELVAAITWDGGSTYYADSVKGRFTISRDNAKNTVYLQMNSLKPEDTAVYYCNAVTRSYYSYYYWGQGTQVTVSS	high polyreactivity
QVQLVESGGGLVQAGGSLRLSCAASGLIFYDNMGWYIQAPGKEREMVAAISSSGGSTSYADSVKGRFTISRDNAKNTVYLQMNSLKPEDTAVYYCAADSYPAYLGFVGFDYWGQGTQVTVSS	low polyreactivity
QVQLVESGGGLVQAGGSLRLSCAASGRTFSSYAMGWYRQAPGKERELVAAISSGGSTYYADSVKGRFTISRDNAKNTVYLQMNSLKPEDTAVYYCNRRFYYKIGRGIRYFWGQVTQVTVSS	high polyreactivity
QVQLVESGGGLVQAGGSLRLSCAASGRTFTRNAMGWYRQAPGKERELVAAITYRAGRTYYADSVKGRFTISRDNAKNTVYLQMNSLKPEDTAVYYCNVVPGASLKEDYWGQGTQVTVSS	low polyreactivity
QVQLEESGGGLVQAGGSLRLSCAASGSIFKRKAMGWSRQAPGKERELVASISSGGSTHYADSVKGRFTISRDNAKNTVYLQMNSLKREDTAVYYCAATSIRWSVGSFRRDYWGQGTQVTVSS	low polyreactivity
QVQLVESGGGLVQAGGSLRLSCAASGRTFYKYAMGWYRQAPGKERELVAAISSRGGRTYYADSVKGRFTISRDNAKNTVYLQMNSLKPEDTAVYYCAAKGRPDGKYDYWGQGTQVTVSS	high polyreactivity
QVQLVESGGGLVQAGGSLRLSCAASGSIFRVYMGWYRQAPGKERALVATIRWSSGSTYYADSVKGRFTISRDNAKNTVYLQMNSLKPEDTAVYYCAVKGPYYDDYDYWGQGTQGTVSS	low polyreactivity
QVQLVESGGGLVQAGGSLRLSCAASGSIFEEYAMGWYRHAPGKERELVARIDESGGSTYYADSVKGRFTISRDNAKNTVYLQMNSLKPEDTAVYYCAAERYSDSWGYYSVDEGSWEMDYWGQGTQVTVSS	low polyreactivity
QVQLVESGGGLVQAGGSLRLTCAASGRTFGVNAMGWYRPAPGKERQLVAAITGGGSTYYADSVKGRFTISRDNAKNTVYLQMNSLKPDDTAVYYCNADRRRRSGGFAGWHFERNDYWGQGTQVTVSS	low polyreactivity
QVQLVESGGGLVQAGGSLRLSCAASGSTFTPYAMGWYRQAPGKERELVAAISSTGGITYYADSVKGRFTISRDNAKNTVYLQMNSLKPEDTAVYYCAADAYYYGYEYWGQGTQVTVSS	high polyreactivity
QVQLEESGGGLVQAGGSLRLSCAASGRIFDDNAMGWYRPAPGKERELVAAISSSGGSTYYADSVKGRFTISRDNAKNTVYLQMNSLKPEDTAVYYCNAGRYIRAFWYAHGYDYWGQGTQVTVSS	high polyreactivity

Sequence	polyreactivity (PSR sort gate)
QVQLVESGVGLVQAGGSLSLSCAASGRTFYVNAMGWYRQAPGKERELVARITSGGSTYYGDSVKGRFTISRDNAKNTVYLQMNSLKPEDTAVYYCAKKYIGYQEGIHSTRRYDYWGQGTQVTVSS	low polyreactivity
QVQLVESRGGLVQAGGSLRISCAASGSTFVAYAMGWYRQAPAKERELVAAISYSGGSTYYADSVKGRFTISRDYAKNTVSLQMNCLKPEDTAVYYCAAEWSRHYYYGPRYDYWGQGTQVSVSS	low polyreactivity
QVQLVESGGGLVQAGGSLRLSCAASGFILKPNAMGWYRQAPGKERELVAAISWSSGSTYYADSVKGRFTISRDNAKNTVYLQMNRLKPEDTAVYYCAADYFVYPDDWYDYWGQGTQVTVSS	low polyreactivity
QVQLVESGGGLVQAGGSLRLSCAASGSIFTAYAMGWYRQAPGKERELVAAIDDSGDSTYYADSVKGRFTISRDNAKNTVYLQMNSLKPEDTAVYYCKAEYRVNKEYDYWGQGTQVTVSS	low polyreactivity
QVQLVESGGGLVQAGGSLRLSCAASGRTFQYYAMGWYRQAPGKERELVAAISWSGASTYYADSVKGRFTISRDNAKNTVYLQMNSLKPEDTAVYYCAVKAGGSRYGYWGQGTHVTVSS	high polyreactivity
QVQLVESGGGLVHAGGSLRLSCAASGSTFVEYVMGWYRQAPGKERELVASIDVGTTSTRYADSVKGRFTISRDNAKNTVYLQMNSLKPEDTAVYYCNADGYYSGYWTNYDYWGQGTQVTVSS	low polyreactivity
QVQHVESGGSLVQAGGSLRLSCAASGRTFRRYAMGWFRHAPGKAWELVAAIRSDGATYYADSVKGRFTISRDNAKNTVYLQMNSLKPEDTAVYYCNAVYVSSVTGHVDWGQGTQVTVSS	low polyreactivity
QVQLVESGAGLVQAGGSLRLSCAASGRTIRSYAMGWYRQATGKERELVAAISSGGRTYYADSVKGRFTISRDNAKNNVYLQMNSLKPEDTAVYYCAVRYRVYIFQYGYWGQGTQVTVSS	high polyreactivity
QVQLVESGGGLVQAGGSHRFSCAASGRIFYGHVMGWYRQAPGKERELVADISYDGGSTYYADSVKGRFTISRDNAKKTVYLQMNSLNPEDTAVYYGATRFVYRYTFWYYSTEYNYCGQGTQVTVSS	low polyreactivity
QVQLVESGGGLVQAGGSLRLSCAASGSIFSYYAMGWYRQAPGKERELVAAISWSGTSTYYADSVKGRFTISRDNAKNTVYLQMNSLKPEDTAVYYCNAGDNPIFDLGQGTQVTVSS	high polyreactivity
QVQLEESGGGLVQAGGSLRLSCAASGLNIAVYTMGWYRQAPGKERELVAAITRRSTRTYYADSVKGRFTISRDNALISVFLQMNSLKPEDTAVYYCAADRVSSGAAFEFWGQGTQVTVSS	low polyreactivity
QVQLVESGGGLVQAGGSLRLSCAASGRIFQGYAMGWYRQAPGKERELDAAITVRGGTTYYADSVKGRFTISRDNAKNTVYLQMNRRKPEDTAVYYCNAAKLIHCYQYVYPASNSRYYYWGQGTQVTVSS	low polyreactivity
QVQLVESGGGLVQAGGSLRLSCAASGSIFLYNAMGWYRQAPGKERELVATITYIGGRTYYADSVKGRFTISRDNAKNTVYLQMNSLKQEDTAVYYCAAEYYVISSPSFYEYDYWGQGTQVTVSS	low polyreactivity
QVHLVESGGGLVQAGGSLRLSCAPSGRIFFPYAMGWYRQAPGKEREFVAAIRRSGGSTYYADSVKGRFTISRDNAKNTVYLQMNSLKPEDTAVYYCNAPLKRYGYYKYGYWGQGTQVTVSS	high polyreactivity
QVQLVESGGGLVQAGGSLRLSCAASGRTFGRYAMGWYRQAPGKERELVATISVSSGSTYYADSVKGRFTISRDTAKNTVYLQMNSLKPEDTAVYYCNAVYGRQYRGYNYKYYYWGQGTQVTVSS	high polyreactivity
QVQRVDSGGGIVQAGGSLRLSCADSGSIFNRYAMGWYRQAPGKERELFAAISSSSGSTYYADSVKGRFTISRDNSKNTVYLQMNSLKPEDTAVYYCATRRKVVPTQVGYYYRGGVDYWGQGTQVTVSS	high polyreactivity
QVQLVESGAGLVQAGGSLRLSCAPSGSILVNPIGWYRQAPGKEREFVAAISSGGSTKYADSVKGRFTISRDNAKNTVYLQMNSLKPEATAVYYCNARRRGAGGYDYWGQVTQVTVSS	high polyreactivity
QVQLVESGGGLVQAGGSLRLSCAASGRIFRGYTMGWYRTAPGKERELVAAISRSTGSTNYADSVKGRFTISRDNAKNTVYLQMNSLKPEDTAVYYCAAGPVDYGDWYYDVWFDYWGQGTQVTVSS	high polyreactivity
QVQLVESGGGLVQAGGSLRLSCAASGNTFRWYAMGWYRQAPGKERELVAAITWSGGSTYYADSVKGRFTISRDNAKNPVYLQMNSLKPEDTAVYYCAARRWAGEYDYWGQGTQVTVSS	low polyreactivity
QVQLVESGGGLVQAGGSLRLSCVASGRTFSRYAMGWYRPAPGKERELVAAISRRGGSTFYADSVKGRFTISRDNAKNTVYLQMNSLKPEDTAVYYCAAGYITWGSGNWVVTPYDYWGQGTQVTVSS	high polyreactivity

Reference: the nanobody polyreactivity screen of Harvey et al. (2022)
